The values below come from patent publication US20070280939A1 (published 2007).

In the test the target is T1, HLA-A2*0201 on T2 cells (human).
T1 construct: whole, on cells; also called HLA-A2 antigen
Nature of the test: T2 cell HLA-A2 stabilisation assay, flow cytometry.

Experimental: T2 cells incubated with peptides were stained for the presence of cell surface HLA-A2 antigen using flow cytometry. Fluorescent intensity of stained cells was used to determine the ability of test peptides to bind and therefore stabilise HLA-A2. […] The RBI was calculated for each peptide from the obtained mean fluorescence intensity (MFI) of T2 cells incubated with test peptide divided by the MFI obtained from cells incubated with 100% DMSO alone.
T2 cells were washed twice in serum-free RPMI and incubated overnight at 37° C. in a round-bottomed 96 well plate in 50 μl serum-free RPMI containing 160,000 cells and final concentrations of 100, 10 and 1 μM of peptide. A negative control was provided by adding dilute DMSO without peptide to 2 wells. […] After washing in phosphate buffered saline (PBS) (Oxoid, UK) containing 0.1% bovine serum albumin (BSA) (Sigma, USA), the cells were incubated on ice for 30 minutes with 20 μl of mouse antihuman HLA-A2 antibody MA2.1 (ATCC, UK). Following washing with PBS+BSA, 100 μl of a 1/100 dilution of FITC labelled goat anti-mouse IgG (Sigma, USA) was added and the cells incubated for 30 minutes on ice. The cells were washed twice using PBS+BSA, fixed in 500 μl Isoton and allowed to normalise to room temperature for 20 minutes prior to analysis by flow cytometry.

In the case of ALASCFCFFC [PAP.15], the binding result was “no binding (tested: 100 µM, 10 µM and 1 µM)”.
